Source: paper PMC5498717

Target: GST
Test: cross-linking; BS3 0.25 mM, 15 min at RT in PBS with 1 mM DTT, proteins mixed about 1:1; SDS-PAGE, anti-His and anti-GST Western blots

Chain of GST (natural protein) (P08515 2-218): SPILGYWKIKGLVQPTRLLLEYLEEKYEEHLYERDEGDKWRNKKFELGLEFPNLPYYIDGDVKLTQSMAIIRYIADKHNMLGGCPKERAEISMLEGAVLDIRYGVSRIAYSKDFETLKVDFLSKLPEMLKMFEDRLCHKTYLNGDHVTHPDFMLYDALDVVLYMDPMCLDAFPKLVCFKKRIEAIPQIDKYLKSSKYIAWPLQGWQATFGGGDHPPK

GST (natural protein)
stoichiometry N: 2
